Measured values taken from article PMC10520083 (2023).
Positions count from the first letter of the chain named. Names and notes keep the numbering of the source. Where two headings read alike, the source gives them in different places.

Assays:
[1] = target: human α7 nicotinic acetylcholine receptor with the ICD replaced by a short linker and a C-terminal Rho1D4 tag (α7∆ICDcryo), reconstituted in MSP1E3D1 nanodiscs (human) (UniProt P36544); experiment: cryo-EM structure; 1 µM α7 pentamer in MSP1E3D1 nanodiscs with 50 µM nanobody (50-fold excess), no nicotine (C4-Apo, E3-Apo)
[2] = target: T1, human α7 nicotinic acetylcholine receptor with the ICD replaced by a short linker and a C-terminal Rho1D4 tag … (human, UniProt P36544 23-502, N-linked glycans at Asn23, Asn67 and Asn110); experiment: SPR; α7 prep 1, + 100 µM nicotine
T1 chain: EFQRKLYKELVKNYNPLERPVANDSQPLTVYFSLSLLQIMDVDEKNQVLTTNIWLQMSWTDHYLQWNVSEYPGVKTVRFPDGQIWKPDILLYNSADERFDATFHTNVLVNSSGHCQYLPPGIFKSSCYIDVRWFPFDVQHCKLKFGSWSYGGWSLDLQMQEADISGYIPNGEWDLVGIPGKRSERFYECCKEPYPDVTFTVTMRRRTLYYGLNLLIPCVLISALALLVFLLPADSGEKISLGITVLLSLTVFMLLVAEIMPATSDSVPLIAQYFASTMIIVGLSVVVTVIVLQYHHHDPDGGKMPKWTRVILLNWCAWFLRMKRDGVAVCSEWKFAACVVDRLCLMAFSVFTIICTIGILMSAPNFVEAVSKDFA

[3] = target: T1, human α7 nicotinic acetylcholine …; experiment: SPR; α7 prep 1
[4] = target: T1, human α7 nicotinic acetylcholine …; experiment: SPR; α7 prep 1
[5] = target: T1, human α7 nicotinic acetylcholine …; experiment: SPR; α7 prep 2
[6] = target: human α7 nicotinic acetylcholine receptor with the ICD replaced by a short linker and a C-terminal Rho1D4 tag (α7∆ICDcryo), reconstituted in MSP1E3D1 nanodiscs (human) (UniProt P36544); experiment: cryo-EM structure; 1 µM α7 pentamer in MSP1E3D1 nanodiscs with 50 µM nanobody (50-fold excess) and 100 µM nicotine (C4-Nic, E3-Nic)
[7] = target: human α7 nicotinic acetylcholine receptor L247T mutant (human) (UniProt P36544)
[8] = target: T1, human α7 nicotinic acetylcholine …; experiment: SPR; α7 prep 1, + 100 µM nicotine
[9] = target: human α7 nicotinic acetylcholine receptor with the ICD replaced by a short linker and a C-terminal Rho1D4 tag (α7∆ICDcryo), reconstituted in MSP1E3D1 nanodiscs (human) (UniProt P36544); experiment: SPR; single-cycle kinetics, Biacore T200; α7-nanodiscs captured on anti-Rho tag antibody 1D4 immobilised on CM5; nanobodies injected (five increasing concentrations, 600 s each, 30 µl/min); buffer A (20 mM Tris, 250 mM NaCl) pH 8, 25 °C
[10] = target: T1, human α7 nicotinic acetylcholine …; experiment: SPR; α7 prep 2
[11] = target: human α7 nicotinic acetylcholine receptor with the ICD replaced by a short linker and a C-terminal Rho1D4 tag (α7∆ICDcryo), reconstituted in MSP1E3D1 nanodiscs (human) (UniProt P36544); experiment: SPR; single-cycle kinetics, Biacore T200; α7-nanodiscs captured on anti-Rho tag antibody 1D4 immobilised on CM5; nanobodies injected (five increasing concentrations, 600 s each, 30 µl/min); buffer A (20 mM Tris, 250 mM NaCl) pH 8, 25 °C; remark: listed apart in the source
[12] = target: human α7 nicotinic acetylcholine receptor with the ICD replaced by a short linker and a C-terminal Rho1D4 tag (α7∆ICDcryo), reconstituted in MSP1E3D1 nanodiscs (human) (UniProt P36544); experiment: cryo-EM structure; 1 µM α7 pentamer in MSP1E3D1 nanodiscs with a sub-saturating 10 µM nanobody, no nicotine (C4partial-Apo; 2D classification for E3)
[13] = target: full-length human α7 nicotinic acetylcholine receptor fused to a Rho1D4 tag at its C-terminus (α7FLcryo) (human) (UniProt P36544); experiment: cryo-EM structure; 1 µM α7 pentamer in MSP1E3D1 nanodiscs with 50 µM nanobody (50-fold excess) and 100 µM nicotine (C4-Nic, E3-Nic)

## human α7 nicotinic acetylcholine receptor with the ICD replaced by a short linker and a C-terminal Rho1D4 tag (α7∆ICDcryo), reconstituted in MSP1E3D1 nanodiscs (from UniProt P36544 23-502)
[1]
  stoichiometry N: 5

B1: nanobody E3 (VHH)
VHH: AVQLQASGGGLVQAGDSLRLSCAASGGTFSHYAVGWFRQAPGKEREFVAAISWSGRSTSFANSVKGRFTISRDSAKNTAYLQMNNLKPEDTAVYCCAPARFGTGSAARDEYDDCGQGTQVTVSS
[2]
  koff: 0.0085 s⁻¹
[3]
  Kd: 8 nM
[4]
  koff: 0.013 s⁻¹
[5]
  koff: 0.019 s⁻¹
[6]
  stoichiometry N (nanobodies per α7 pentamer): 5
[1]
  stoichiometry N (nanobodies per α7 pentamer): 5
[7]
  increase of the holding current during pre-application of E3 in the absence of ACh (direct activation, TEVC, Xenopus oocytes) (% of the response to 0.3 µM ACh): 6
[8]
  Kd: 7.4 nM
[9]
  Kd: 1 nM
  koff: 0.0119 s⁻¹
  kon: 1.1e+07 M⁻¹ s⁻¹
  stoichiometry N (nanobodies per receptor molecule): < 3

B2: nanobody E3 R56A (VHH)
VHH: B1 VHH with R56A
[5]
  koff: 0.01 s⁻¹
[10]
  Kd: 1.5 nM

B3: nanobody E3 E110Q (VHH)
VHH: B1 VHH with E110Q
[5]
  koff: 0.011 s⁻¹
[10]
  Kd: 0.62 nM

B4: nanobody C4 (VHH)
VHH: QVQLVESGGGLVQAGGSLKLSCAASGFTFAHYAMVWFRQAPGKEREFVAGISWSGASTYYASSVKGRFTISRDNAKNTVYLQMNSLKPEDTAVYYVAAARFGVGVDDDYSYWGQGTQVTVSS
[11]
  Kd: 0.1 nM
[12]
  stoichiometry N (nanobodies per α7 pentamer): 3
[13]
  stoichiometry N (nanobodies per α7 pentamer): 5
[1]
  stoichiometry N (nanobodies per α7 pentamer): 5
[9]
  Kd: 0.2 nM
  koff: 0.00024 s⁻¹
  kon: 1.2e+06 M⁻¹ s⁻¹
  stoichiometry N (nanobodies per receptor molecule): < 3
